Target: human haemoglobin (human)
Experiment: ITC; MicroCal iTC200; 250 μM TcHpHbR titrated into 18 μM Hb, 20 injections of 2 μl; 20 mM HEPES pH 7.5, 150 mM NaCl, 25°C

T. congolense haptoglobin-haemoglobin receptor (TcHpHbR), recombinant, as used in gel filtration and ITC
Kd: 3 nM
stoichiometry N (receptors per Hb tetramer): 2
